In the supplement of paper PMC10567573:

B1: CDC25B (parent)
chain: KSPIAPCSLDKRVILIFHCEFSSE
B2: FAM189A2 (parent)
chain: PRCDLVDLGEGKICFCCEEFQPAK

Variants of: B1
Experiment: protein stability index of a GFP-peptide fusion (GPS, HEK-293T) (PSI 1-6); higher = more stable
Settings: c terminus: a fixed tail appended
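Also: lentivirally expressed fusions sorted by FACS into six bins by GFP to DsRed ratio, PSI derived from sequencing read proportions per bin multiplied by bin number.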

Variant | protein stability index
KSPIAPCSLDPRVILIFHCEFSSE | 3.23
KSPIAPCSLDQRVILIFHCEFSSE | 2.16
KSPIAPCSLDVRVILIFHCEFSSE | 4.34
KSPIAPCSLDYRVILIFHCEFSSE | 2.32
KSPIAPCSLDKDVILIFHCEFSSE | 3.43
KSPIAPCSLDKFVILIFHCEFSSE | 5.41
KSPIAPCSLDKGVILIFHCEFSSE | 2.23
KSPIAPCSLDKHVILIFHCEFSSE | 2.79
KSPIAPCSLDKIVILIFHCEFSSE | 3.03
KSPIAPCSLDKKVILIFHCEFSSE | 3.98
KSPIAPCSLDKLVILIFHCEFSSE | 3.04
KSPIAPCSLDKMVILIFHCEFSSE | 2.89
KSPIAPCSLDKNVILIFHCEFSSE | 2.76
KSPIAPCSLDKPVILIFHCEFSSE | 2.66
KSPIAPCSLDKSVILIFHCEFSSE | 4.14
KSPIAPCSLDKYVILIFHCEFSSE | 3.38
KSPIAPCSLDKRAILIFHCEFSSE | 3.2
KSPIAPCSLDKRCILIFHCEFSSE | 1.21
KSPIAPCSLDKRDILIFHCEFSSE | 2.51
KSPIAPCSLDKREILIFHCEFSSE | 1.45
KSPIAPCSLDKRFILIFHCEFSSE | 2.29
KSPIAPCSLDKRGILIFHCEFSSE | 1.14
KSPIAPCSLDKRHILIFHCEFSSE | 1.85
KSPIAPCSLDKRIILIFHCEFSSE | 3.36

Variant | protein stability index
KSPIAPCSLDKRKILIFHCEFSSE | 1.32
KSPIAPCSLDKRLILIFHCEFSSE | 2.5
KSPIAPCSLDKRNILIFHCEFSSE | 1.61
KSPIAPCSLDKRPILIFHCEFSSE | 1.49
KSPIAPCSLDKRQILIFHCEFSSE | 1.42
KSPIAPCSLDKRRILIFHCEFSSE | 3.12
KSPIAPCSLDKRSILIFHCEFSSE | 3.15
KSPIAPCSLDKRTILIFHCEFSSE | 2.89
KSPIAPCSLDKRWILIFHCEFSSE | 4.17
KSPIAPCSLDKRYILIFHCEFSSE | 2.97
KSPIAPCSLDKRVALIFHCEFSSE | 2.65
KSPIAPCSLDKRVCLIFHCEFSSE | 1.54
KSPIAPCSLDKRVDLIFHCEFSSE | 2.54
KSPIAPCSLDKRVELIFHCEFSSE | 2.07
KSPIAPCSLDKRVFLIFHCEFSSE | 2.94
KSPIAPCSLDKRVGLIFHCEFSSE | 1.56
KSPIAPCSLDKRVHLIFHCEFSSE | 3.76
KSPIAPCSLDKRVLLIFHCEFSSE | 1.95
KSPIAPCSLDKRVMLIFHCEFSSE | 2.35
KSPIAPCSLDKRVNLIFHCEFSSE | 1.96
KSPIAPCSLDKRVPLIFHCEFSSE | 2.25
KSPIAPCSLDKRVQLIFHCEFSSE | 1.1
KSPIAPCSLDKRVRLIFHCEFSSE | 1.79
KSPIAPCSLDKRVSLIFHCEFSSE | 1.94

Variant | protein stability index
KSPIAPCSLDKRVTLIFHCEFSSE | 2.1
KSPIAPCSLDKRVVLIFHCEFSSE | 2.87
KSPIAPCSLDKRVIAIFHCEFSSE | 2.68
KSPIAPCSLDKRVIDIFHCEFSSE | 2.38
KSPIAPCSLDKRVIEIFHCEFSSE | 1.83
KSPIAPCSLDKRVIFIFHCEFSSE | 2.88
KSPIAPCSLDKRVIGIFHCEFSSE | 1.39
KSPIAPCSLDKRVIHIFHCEFSSE | 1.05
KSPIAPCSLDKRVIIIFHCEFSSE | 3.49
KSPIAPCSLDKRVIKIFHCEFSSE | 1.42
KSPIAPCSLDKRVIMIFHCEFSSE | 2.88
KSPIAPCSLDKRVINIFHCEFSSE | 2.21
KSPIAPCSLDKRVIPIFHCEFSSE | 2.28
KSPIAPCSLDKRVIQIFHCEFSSE | 1.84
KSPIAPCSLDKRVIRIFHCEFSSE | 1.71
KSPIAPCSLDKRVISIFHCEFSSE | 1.86
KSPIAPCSLDKRVITIFHCEFSSE | 1.8
KSPIAPCSLDKRVIYIFHCEFSSE | 2.66
KSPIAPCSLDKRVILAFHCEFSSE | 1.52
KSPIAPCSLDKRVILCFHCEFSSE | 2.93
KSPIAPCSLDKRVILDFHCEFSSE | 2.92
KSPIAPCSLDKRVILEFHCEFSSE | 1.07
KSPIAPCSLDKRVILGFHCEFSSE | 1.4
KSPIAPCSLDKRVILHFHCEFSSE | 1.68

Variant | protein stability index
KSPIAPCSLDKRVILKFHCEFSSE | 1.39
KSPIAPCSLDKRVILLFHCEFSSE | 1.38
KSPIAPCSLDKRVILMFHCEFSSE | 2.25
KSPIAPCSLDKRVILNFHCEFSSE | 2.54
KSPIAPCSLDKRVILPFHCEFSSE | 3.02
KSPIAPCSLDKRVILQFHCEFSSE | 1.52
KSPIAPCSLDKRVILRFHCEFSSE | 2.5
KSPIAPCSLDKRVILSFHCEFSSE | 2.01
KSPIAPCSLDKRVILTFHCEFSSE | 2.18
KSPIAPCSLDKRVILVFHCEFSSE | 1.06
KSPIAPCSLDKRVILWFHCEFSSE | 1.05
KSPIAPCSLDKRVILYFHCEFSSE | 2.91
KSPIAPCSLDKRVILIAHCEFSSE | 1.92
KSPIAPCSLDKRVILICHCEFSSE | 2.19
KSPIAPCSLDKRVILIDHCEFSSE | 3.13
KSPIAPCSLDKRVILIEHCEFSSE | 2.76
KSPIAPCSLDKRVILIGHCEFSSE | 1.39
KSPIAPCSLDKRVILIHHCEFSSE | 1.64
KSPIAPCSLDKRVILIIHCEFSSE | 2.47
KSPIAPCSLDKRVILIKHCEFSSE | 2.33
KSPIAPCSLDKRVILIMHCEFSSE | 1.66
KSPIAPCSLDKRVILINHCEFSSE | 2.54
KSPIAPCSLDKRVILIPHCEFSSE | 2.36
KSPIAPCSLDKRVILIQHCEFSSE | 2.44

Variant | protein stability index
KSPIAPCSLDKRVILIRHCEFSSE | 1.69
KSPIAPCSLDKRVILISHCEFSSE | 1.8
KSPIAPCSLDKRVILITHCEFSSE | 1.8
KSPIAPCSLDKRVILIVHCEFSSE | 4.17
KSPIAPCSLDKRVILIFACEFSSE | 3.34
KSPIAPCSLDKRVILIFCCEFSSE | 3.24
KSPIAPCSLDKRVILIFDCEFSSE | 3.1
KSPIAPCSLDKRVILIFFCEFSSE | 3.53
KSPIAPCSLDKRVILIFGCEFSSE | 2.81
KSPIAPCSLDKRVILIFICEFSSE | 1.86
KSPIAPCSLDKRVILIFKCEFSSE | 2.45
KSPIAPCSLDKRVILIFMCEFSSE | 1.88
KSPIAPCSLDKRVILIFNCEFSSE | 2.26
KSPIAPCSLDKRVILIFPCEFSSE | 2.44
KSPIAPCSLDKRVILIFSCEFSSE | 3.34
KSPIAPCSLDKRVILIFYCEFSSE | 2.5
KSPIAPCSLDKRVILIFHAEFSSE | 3.06
KSPIAPCSLDKRVILIFHDEFSSE | 2.34
KSPIAPCSLDKRVILIFHEEFSSE | 1.85
KSPIAPCSLDKRVILIFHHEFSSE | 1.89
KSPIAPCSLDKRVILIFHIEFSSE | 2.77
KSPIAPCSLDKRVILIFHKEFSSE | 2.03
KSPIAPCSLDKRVILIFHNEFSSE | 1.32
KSPIAPCSLDKRVILIFHPEFSSE | 2.75

Variant | protein stability index
KSPIAPCSLDKRVILIFHQEFSSE | 4.16
KSPIAPCSLDKRVILIFHREFSSE | 2.96
KSPIAPCSLDKRVILIFHSEFSSE | 4.17
KSPIAPCSLDKRVILIFHTEFSSE | 3.92
KSPIAPCSLDKRVILIFHWEFSSE | 2.31
KSPIAPCSLDKRVILIFHYEFSSE | 2.08
KSPIAPCSLDKRVILIFHCAFSSE | 1.82
KSPIAPCSLDKRVILIFHCCFSSE | 4.34
KSPIAPCSLDKRVILIFHCDFSSE | 2.58
KSPIAPCSLDKRVILIFHCFFSSE | 2.05
KSPIAPCSLDKRVILIFHCGFSSE | 2.81
KSPIAPCSLDKRVILIFHCHFSSE | 2.2
KSPIAPCSLDKRVILIFHCIFSSE | 2.55
KSPIAPCSLDKRVILIFHCKFSSE | 1.64
KSPIAPCSLDKRVILIFHCMFSSE | 2.51
KSPIAPCSLDKRVILIFHCNFSSE | 3.58
KSPIAPCSLDKRVILIFHCPFSSE | 3.36
KSPIAPCSLDKRVILIFHCSFSSE | 3.75
KSPIAPCSLDKRVILIFHCVFSSE | 2.73
KSPIAPCSLDKRVILIFHCEASSE | 2.32
KSPIAPCSLDKRVILIFHCECSSE | 2.97
KSPIAPCSLDKRVILIFHCEDSSE | 1.51
KSPIAPCSLDKRVILIFHCEGSSE | 2.94
KSPIAPCSLDKRVILIFHCEHSSE | 2.91

Variant | protein stability index
KSPIAPCSLDKRVILIFHCEISSE | 2.1
KSPIAPCSLDKRVILIFHCEKSSE | 1.5
KSPIAPCSLDKRVILIFHCEMSSE | 3.21
KSPIAPCSLDKRVILIFHCENSSE | 1.88
KSPIAPCSLDKRVILIFHCEPSSE | 2.66
KSPIAPCSLDKRVILIFHCEQSSE | 2.53
KSPIAPCSLDKRVILIFHCERSSE | 2.15
KSPIAPCSLDKRVILIFHCESSSE | 2.69
KSPIAPCSLDKRVILIFHCETSSE | 3.13
KSPIAPCSLDKRVILIFHCEFASE | 3.41
KSPIAPCSLDKRVILIFHCEFCSE | 1.43
KSPIAPCSLDKRVILIFHCEFDSE | 3.4
KSPIAPCSLDKRVILIFHCEFFSE | 2.21
KSPIAPCSLDKRVILIFHCEFHSE | 2.09
KSPIAPCSLDKRVILIFHCEFISE | 1.34
KSPIAPCSLDKRVILIFHCEFKSE | 2.08
KSPIAPCSLDKRVILIFHCEFMSE | 2.66
KSPIAPCSLDKRVILIFHCEFPSE | 2.1
KSPIAPCSLDKRVILIFHCEFQSE | 2.5
KSPIAPCSLDKRVILIFHCEFTSE | 2.88
KSPIAPCSLDKRVILIFHCEFWSE | 4.72
KSPIAPCSLDKRVILIFHCEFYSE | 2.31
KSPIAPCSLDKRVILIFHCEFSAE | 4.14
KSPIAPCSLDKRVILIFHCEFSCE | 1.23

Variant | protein stability index
KSPIAPCSLDKRVILIFHCEFSEE | 1.73
KSPIAPCSLDKRVILIFHCEFSFE | 4.12
KSPIAPCSLDKRVILIFHCEFSIE | 2.64
KSPIAPCSLDKRVILIFHCEFSLE | 2.04
KSPIAPCSLDKRVILIFHCEFSME | 2.11
KSPIAPCSLDKRVILIFHCEFSNE | 2.25
KSPIAPCSLDKRVILIFHCEFSQE | 2.79
KSPIAPCSLDKRVILIFHCEFSTE | 2.89
KSPIAPCSLDKRVILIFHCEFSVE | 2.95
KSPIAPCSLDKRVILIFHCEFSWE | 3.34
KSPIAPCSLDKRVILIFHCEFSSD | 2.77
KSPIAPCSLDKRVILIFHCEFSSG | 2.09
KSPIAPCSLDKRVILIFHCEFSSK | 3.12
KSPIAPCSLDKRVILIFHCEFSSL | 1.98
KSPIAPCSLDKRVILIFHCEFSSQ | 2.38
KSPIAPCSLDKRVILIFHCEFSST | 2.44
KSPIAPCSLDKRVILIFHCEFSSV | 2.98
KSPIAPCSLDKRVILIFHCEFSSY | 2.39

Variants of: B2
Experiment: as above
Settings: c terminus: a fixed tail appended

Variant | protein stability index
ARCDLVDLGEGKICFCCEEFQPAK | 2.24
CRCDLVDLGEGKICFCCEEFQPAK | 2.83
